We go through 2 substances from PMC8600398.

Usually Kd stands for a measure of binding affinity in units of concentration.

Series [1] addresses T1, 6His-CRP (cAMP receptor protein) (Escherichia coli (K-12 MG1655?)) (UniProt P0ACJ8).
T1 sequence: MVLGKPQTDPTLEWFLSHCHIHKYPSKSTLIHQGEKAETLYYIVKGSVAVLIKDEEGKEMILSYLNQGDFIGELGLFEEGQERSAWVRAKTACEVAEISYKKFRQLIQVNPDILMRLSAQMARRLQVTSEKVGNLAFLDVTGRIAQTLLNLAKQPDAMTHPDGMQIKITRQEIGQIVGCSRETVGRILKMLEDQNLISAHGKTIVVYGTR
Description: EMSA. Particulars: 10 mM Tris-HCl pH 7.5, 50 mM NaCl, 5 mM MgSO4, 1 mM DTT, 1 mg/ml BSA, 200 uM cAMP, 10% glycerol, 12 ug/ml poly(dI-dC), 5 nM DNA, 37 C 15 min; 5% PAGE 0.25X TBE …. (In general: A gel shift assay detects complexes by their altered migration in electrophoresis.)

Series [2] deals with 6His-CRP (cAMP receptor protein) (Escherichia coli (K-12 MG1655?)). Kind of series: EMSA. To be noted: 10 mM Tris-HCl pH 7.5, 50 mM NaCl, 5 mM MgSO4, 1 mM DTT, 1 mg/ml BSA, 200 uM cAMP, 10% glycerol, 12 ug/ml poly(dI-dC), 5 nM DNA, 37 C 15 min; 5% PAGE 0.25X TBE ….

With “GCCTACCGCATCCGCTTGCGTATCGACGGCGTATTGCATCCTTTACCGGATGTTTCACCGGATGCCGGAGTCGCATTAACCGCCAGATTAAAAGTGCTGGGAAACCTGG (double strand)”, in series [1], the binding entry is given as “no binding”. ytfK promoter region -515/+3 displayed a Kd in series [2] of 25 nM.
